Experimental data reported in the DeepSol protein solubility set.

Assay: soluble on expression in E. coli; label from the status in PepcDB or PDB records

Sequence | soluble on expression in E. coli
MSLRINLTSEKTLKEASTSMAPNVLKGNVIKNKAVASGKYVPFFGSSELSRFSAFHPSVLSEKYQRNYRPFLLGEAGTQSLTQAMVIHSMGDAIANKKAVFILSPQWFVKKGVPNDSFGAHYSQLQTYQWLANLTELTSGDQYLAQRLTKFPVVQKDKVLMETLANLQAGQLPQRSQRDYFIMNLRFLNREDELFSQIGMVSREPIVEKDMKQLPATYNFNELDQLAGKIAAKAINNNKFEISNGFYRQRIKPVLPKLAHSQKKWDYRFSPEYGDFQAALEQLAEKNVDVLFVIPPVNKRWSDYTGLSQDMLQQVARKLKYQLQEQGFTNIADFSTCSNERYFMADTIHLGWRGWLAVDRQVDEFMKQPASKKLAYQIDDRFYQTDWQQQNPLVLPQFEGHHHHHH | soluble
MRINFEKANSNHINIIFSWLKEPFIQEFWDNTQAHKDDILNFINGRTEPSSYADGKYVYWIASGNGHPFAMLMTIQETSEDEIDDIKLINLSKTGHSYGIDYMIGDKNYFGIGYGARTLIEFIDFFIKEVDPKADTFLIDPASDNPRAKHVYIKAGFEYVADFLMSGDVSGAGKLHHLLIKRIGLIK | not soluble
MGSDKIHHHHHHMELQLQNLALSFKNKPNVIHDISLTMNGGSIVGIVAPNGTGKTTLLRLILNDLKPQAGKVLVDGKSYGSQKQSLALHRQMCLFPVQDDLYPDLSGKAHLEYYAKLWHNRSKSVKQIINVLDMRDYINQPVRTYSMGMKQRLCFGMVMAANTPIMLLDEFMNGLDTINVARMSRILRGLRAEGKLIITVSHLLNNLQGYADLIYFMRDGKIIKTIDQHEQQPLYVQVAEENASRLPRMPWEHYPNGMLVLPIQKLPGEHFNQLLLGLAAHHIPFKLGPLDLDTYFNEFYETDQ | not soluble
MQNISIAENNRTGIPVQSLSYEQAAKGPTGSIMTEGYAKAIANYAYVWGWPMVNMHNRREAFKQVPYQGYIGGAMPAAPINHLTMLSDYVSPNMRDVAHPNQDVVYGFGMLSLDKEPVVIQVPDFGDRFWTVMAEDQRTDSFAQLSSIYDSKPGFYMIVSPEWDGEIPEGINKVFRSSTDLAVVIPRVFMDDTAEDREAIQSVVNQLGAYPLSEFTGIMKITNWKSLPNIPEAKKTKSEKTWVNPNMFFSAEQLGKVLEEVSPLPGEEAMYAQFKELLLQAEENKELQKILNDVANEAEMNIVTPLFRLENVGKEINNYWTRPQDNGRFGTDYLTRLAVAKSNIFTNDVTETSYLYQYKDENGTRINGNHNYTLTFKKGELPPVDGFWSLTMYNSNHFFVPNDIKRYSIGTKNKGMKYNKDGSLTIYIQNEKPSEDKIGNWLPAPKDDIAMTIRAYGPKEEMLSGTWQPPAVVKIKLEHHHHHH | soluble
MKIGYLGPRGTFTEMAVQTLFDDKNVLKPYRTIPDCMDSVANGDMDAAVVPVENAIEGSVNVTLDYLIHKQRLEIVADIVVPISQHFLVHPNQRDNEIKKILSHPHAVAQCHEFLRSSYPGVEIEYMTSTAAAAQWVADHPNEPVAAIANEQAATSYQLDMLEKDIHDYDENRTRFAVLAKGKLSLPPYQVEPYTKKTTMMVTLSSDFSGALHQVLSAFAWRKLNLTKIESRPMKTGLGNYFFIIDVDCEADDVLIPGVMQELEALGCGVELLGSYPCFFHTSLKLTEASSV | not soluble
MTTIKLIVNSVSKSERESIIAALHGQSIFNGGGLSPLNKISPSHPPKPATVAVPEETEKKARDVNEKTALLKKKSATELGELATSINTIARDAHMEANLEMEIVPQGLRVLIKDDQNRNMFERGSAQIMPFFKTLLVELAPVFDSLDNKIIITGHTDAMAYKNNIYNNWNLSGDRALSARRVLEEAGMPEDKVMQVSAMADQMLLDAKNPQSAGNRRIEIMVLTKSASDTLYQYFGQHGDKVVQPLVQKLDKQQVLSQRTR | not soluble
SLVNPNQFKPLIVEQAKKQTGLDLVIEGDIGWQFFPSIGFELGKTELKNPQGFASPNLFKVESVGIDVSVMPLLDKQLKIGNIRLDGAEFHLETLKDGRSNLDALTQAQSKPASAPATTDSAPASQPSSSEPAAAWSIELGGVSVSNAVLEITDKKAGSHTKLYDVQLSVAEFVPDNWTKATFAAKGDKDQQKFAAQGEAEVRLSADFKQYALRNINLDASFSDPSNQIDSAKLKLDTFEFDKANALTFSVAGKAADMKLNAQGSASLMVNQAISKVGLDALKLQAELEGAALPQSPMKLSLDSQIAFDLTQNHLSVLLNKLTANALSFDGKADVTLADIPKVRFNLHSPEIDLDAFLGTKAQESQPAPAKEAAASSSSAPATNAPAEVEPDLSALKALDVAGEISIDKFKASNAHLQNVKANFAVNRGVVDLKSFTANLYQGSVQASAQVDARKTPATYSVKKQIKGVQVKPLLKDVLNNEMLEGTGNIDVNVQGQSLTPSGIQKNLVGTVAINFADGAVKGINVAHLIRTHYAKIKGQNVEEADAVKKTDFSAMTTTLKLNKGEVTTNDLNMQSPLLRIHGEGKANYLQQNVDFLVRTSIVGTLEGQGGKSLDELRDVTIPINISGAWSDPKFRLVFDDVLKQKAKKEVDRGVEKLTDKIKDEDTKKAVDGLLKGLFN | soluble
MSFPAASIDLGTNTARLLIGSVEAGRIEHLLVKRHITRLGGGFTKERGISPEAWSRSLAALVDFADEMNRAGVVRVRAVATSAVRDAVNGGDFCADVAERTGISLEVIDGEEEALLTLAGVLSGLDRKEGRFFVFDVGGGSTEYTLASGNAPLYTESLPLGVVRLTEGKSDLPAMEEKVGRELAGLRERLAGRALDGQLAGATLVGTAGTATTLAAISLGMTDYDYRRVNNHLLSRDEIARILALLLPLSPAERLAVPGLEKGREDLIVAGTLITLATMDLFGFESMTVSDFGLLEGALIGLARTDELEHHHHHH | not soluble
MGSDKIHHHHHHMSRESALSRASRYFEAGDFQSDLAHLVTYRSESQNTAPEARMECRRYLEEAMLPRLRALGFDCEIIDNPDPTGGPLLIGERREGEALPTILTYGHGDAVLGQEGRWREGLEPWVLVEEGDRLYGRGTADNKGQHLINIAALEAVLAERGHLGFNTRIVIEMSEEVGSVGLPDVFRAYKDRLTADVLIASDGPRLQPDVPTMFMGSRGGTTFDLVVETHEGAHHSGNWGGLLSDPAMILAHALACITDVRGQIKVPEWRPDSLTENVRMALRDLPVAGGQGPAVNPDWGEEDLTPAERVFGWNSFTVLAMVSGVPEAPVNAISGWARATCQLRYVVGTDPEDVVPALRRHLDAHGFESVEIRCHERGFFAATRLDPDHPWAQFVGESIRRTSGALHVLPNLAGSLPNDSFTDILEVPTIWVPHSYRGCSQHAPNEHVLKSVYHDALRVMAGVFWDLGEQGGPLA | not soluble
MNTQNYTYSTTGYQPSQPSGGQQSYNETRQYSSNATSNYPSQTQQYQQQQHQYQSDHSNAQRLLNSGYNTNQVDYVLGHKDKYNEGPHYQPPIINSSATAANNSSSSTHHYNSSSQAIPLGGPNQGHSSSSYTTETRVTGGGTGAPVSNNYSNQNYSSSAYNSQSSQHQTKSIPVQNYQISFPPLSVSTPAFGTSFFENSQKSFQESSEKFHRDLASPLSRTIPVQSAGHFSEVSKYFNSEEEENYQVSQPAIPLPSADQVYEVSSNYNKSYSSQTTTQHQPQPVAANNNYSTSYHTERSSTTTAQQPQTIALPPPQNNSSHTETHSSTGPIMMHSPGGHSMKSTEFSSSRHHKQETTTTTTTTPQPPVFQTTTYPTTKTTSYNYSSSTIPSQPAKPSFNQESYTTHTERNNSSQGFPQQRLQPSGGYSYENYSSSRKEENRREETSRPVSQLSQYSESRNYKRNYEEKTETTTVPSLAPATNVTYKDLSNAQCVDDVFNKKTEMNESLPVGSVFNTHNNTEGGYRDANGHDVSYKRETQTSADPGRETALLKEEEKRVVETPLEPGVISRHVTTKYYKKKTVTDTTTTTA | not soluble
MGSDKIHHHHHHMEHFLYRLNFSTALHIGKDAGGPSLDDGQMIIHADTLFAALCCEAVRGGRITQLVKYFADGILSISDALPYAGDEIFLPRPVLFTENRKRAGDSALAKALKNKDYIPLSFFGDYLKSMQQLDFNLESLKSESDFGYLTTLTRVAIKGNSPPLPYHVAAWRFADGCGLYIIVRSEQEEARTMFASLLAELGLSGIGGKQSSGWGKFEVKPGPVPDELLRLLEDKQAEYQMLMGTALPVDNELDTVLLNGWYKLLRRGGFIRSESYAARQMKKKTIYMLASGSCLRSRFKGAMLDLSDNGAHPVWRCGNTLFVGVTI | not soluble
MSLTLVTELTPPAASAPPFSDHPDHVIAAVTATIVDLPLRRPHFHATGTHATQSLVMVELVTSGGAVGWGEGGTPGGTAFWGGECVETIKLMIDHYLAPAVIGISVFDQERILAAMDRIAANNHFAKAAIDIAVHDAAARLIGISVSQMFGGTARSTVPVLWALAAAAYEADVADAIEQIEAGRHSVFKIKIGKGDAASETRRALETATTIHDAHPDARFVVDLNQAWDESTAMRWLAAFQERDFLFVEQPVPAWNVEGMIRLASRFEIPIMADEGLWDFHDAYELIRRGATDIYAVKIAKGGGLRRAFKAAAVAEAAGVPLYGGMALESSVGTAAGLQLFSALPNLPFGCELIGPRLLAEDLTVQPIAYRDREVVVPSGVGMGVEIDRDRVRSFTRRNKEGHHHHHH | soluble
MSNLVLYTLHLSPPCRAVELTAKALGLELEQKTINLLTGDHLKPEFVKLNPQHTIPVLDDNGTIITESHAIMIYLVTKYGKDDSLYPKDPVKQARVNSALHFESGVLFARMRFIFERILFFGKSDIPEDRVEYVQKSYELLEDTLVDDFVAGPTMTIADFSCISTISSIMGVVPLEQSKHPRIYAWIDRLKQLPYYEEANGGGGTDLGKFVLAKKEENAKA | soluble
MSAPLPPRGRGTASNPLNRFAPTHSEAFDDGWEQDVPPIQLTEVREEIARTVISRNQSPDLPFDRSINPYRGCEHGCIYCYARPSHAYWDLSPGIDFETRLIAKSNVASALEQELSKPGYRCAPINLGANTDPYQPLERERRLTRQVLEVLLRFRHPLTIVTKGSLILRDLDLLRELAEQNLVAVMISLTTLDDELKRILEPRAAAPSARLRAIRTLSGNGIPVGVLCSPMIPMVNDMELERLLQAARDAGARSAAYMLLRLPREVGPLFEEWLAAHYPQRAEHVMSLVRQCRGGEVYDSRFGHRFRGQGPFADLLAQRFAVAMKRLGLDRREGFGLDCSRFAVPGAQMALF | not soluble
MASRGLDLWLDEHVWKRKQEIGVKGENLLLPDLWLDFLQLSPIFQRKLAAVIACVRRLRTQATVYPEEDMCMAWARFCDPSDIKVVILGQDPYHGGQANGLAFSVAYGFPVPPSLRNIYAELHRSLPEFSPPDHGCLDAWASQGVLLLNTILTVQKGKPGSHADIGWAWFTDHVISLLSERLKACVFMLWGAKAGDKASLINSKKHLVLTSQHPSPLAQNSTRKSAQQKFLGNNHFVLANNFLREKGLGEIDWRL | soluble
MSLESKPVVFHDVPQDHWAFEAISDLGNAGIIAGYGHGIFGLGDDVTREQVAALIYRSMEGIEEKEEYENPYGDLDEHGSTLFLEEILALTEMGIFQGDEQGNFRPKDTLTRAEMAQVIATAFDLEVKAPHSFNDVPANSWAKDAISAVQSNQIAAGIGQGKFAPEMKVTREQYAQFLYNALTNEHAEEGHHHHHH | soluble
MGSDKIHHHHHHMRRIRTLLSKKPSKLVFNLRKYAAFRQAWKSINVNRTSYSKTRRHYDAVVIGSDEVWNIQNPTFAMMPEYFGRGLNAKNIITYAPSSSKTTYADVAQNPLLAEGMRNIHHFSARDRNTFEIVEKIVNKPVTMVLDPTFLVEYDEEVEEAGVNSHGYVLVYTYQFDRLKIEKTRRFARSRGLRLISPCFYNDWCDEVVPCTPFGFLGLIRDAEYVVTDTFHGSIFSILYGKHFGSYASEKIKVAALLSALGLADRELGGVDDIGSVLDARIDYGRVRTCIEQERDVSLNYLRQALAPAG | not soluble
